The text below walks through data of US7291458B2, “Leptin-mediated gene-induction” (Vlaams Interuniversitair Instituut Voor Biotechnologie VZW, priority 1998, dated 2007).

This assay has as its target T1, long isoform of the mouse leptin receptor (Mus musculus, UniProt P48356).
T1 construct: expressed in transfected cells; host or cells: PC12 (rat pheochromocytoma), transient electroporation with pMET7-mLRlo
T1 sequence (P48356 22-1162): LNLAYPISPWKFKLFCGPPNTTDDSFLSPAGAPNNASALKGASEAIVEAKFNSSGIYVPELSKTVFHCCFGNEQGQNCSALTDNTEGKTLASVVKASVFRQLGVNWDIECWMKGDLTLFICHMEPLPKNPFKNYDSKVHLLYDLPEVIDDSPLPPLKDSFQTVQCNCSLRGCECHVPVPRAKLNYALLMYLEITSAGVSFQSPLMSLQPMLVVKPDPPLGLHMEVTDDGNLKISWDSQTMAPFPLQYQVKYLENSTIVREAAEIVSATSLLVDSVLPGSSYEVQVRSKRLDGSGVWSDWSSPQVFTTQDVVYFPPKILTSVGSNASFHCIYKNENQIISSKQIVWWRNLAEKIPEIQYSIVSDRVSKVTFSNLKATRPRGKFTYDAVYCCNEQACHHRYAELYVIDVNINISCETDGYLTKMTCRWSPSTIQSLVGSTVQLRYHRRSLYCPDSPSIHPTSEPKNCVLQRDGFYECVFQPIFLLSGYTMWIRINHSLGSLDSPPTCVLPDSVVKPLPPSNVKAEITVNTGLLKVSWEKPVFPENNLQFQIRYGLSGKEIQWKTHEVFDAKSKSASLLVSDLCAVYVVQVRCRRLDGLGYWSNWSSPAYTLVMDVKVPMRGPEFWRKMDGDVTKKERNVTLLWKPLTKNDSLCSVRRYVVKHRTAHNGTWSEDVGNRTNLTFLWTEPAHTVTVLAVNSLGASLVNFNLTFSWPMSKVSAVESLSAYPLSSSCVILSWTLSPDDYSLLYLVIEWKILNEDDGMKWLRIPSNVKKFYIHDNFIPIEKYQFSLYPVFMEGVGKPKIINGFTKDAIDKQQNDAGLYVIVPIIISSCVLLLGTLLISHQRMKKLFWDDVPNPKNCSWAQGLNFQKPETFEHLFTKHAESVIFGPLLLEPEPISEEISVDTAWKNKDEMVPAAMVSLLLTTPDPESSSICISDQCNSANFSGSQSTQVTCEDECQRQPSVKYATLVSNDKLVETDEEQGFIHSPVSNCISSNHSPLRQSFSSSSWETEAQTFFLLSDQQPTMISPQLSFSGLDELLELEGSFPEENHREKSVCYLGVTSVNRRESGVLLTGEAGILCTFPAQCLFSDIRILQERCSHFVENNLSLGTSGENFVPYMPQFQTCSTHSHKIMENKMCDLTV
Put plainly: rNPY promoter luciferase reporter in PC12 cells transiently transfected with pMET7-mLRlo. It is filed as cell-based. The method, then:
FIG. 1A. Leptin-induced NPY promoter activity in transiently transfected PC12 cells. PC12 cells were co-transfected with control vector (columns 1 and 2), pMET7-mLRsh (columns 3 and 4) or pMET7-mLRlo (columns 5 and 6) together with the pGL3-rNPYluc reporter. The different subcultures were mock stimulated (growth medium alone) or treated with mouse leptin (100 ng/ml) for 72 hours. Luciferase activity in cell lysates is shown; data represent the mean±standard deviation values of assays performed in triplicate.
FIG. 1B. Forskolin co-stimulation on leptin-induced pGL3-rNPY luciferase activity. PC12 cells were transiently co-transfected with pMET7-mLRlo and the pGL3-rNPYluc reporter. […]
In order to study leptin receptor signaling in a neuro-endocrine-related cell type, we transiently transfected PC12 cells with expression vectors for the long or the short isoform of the mouse leptin receptor (pMET7-mLRlo and pMET7-mLRsh respectively) and monitored gene induction by leptin. […]
Luciferase activity was measured in transfected cells by chemiluminescence. […] 70 μl of luciferase substrate buffer (20 mM Tricine; 1.07 mM (MgCO3)4Mg(OH)25H2O; 2.67 mM MgSO4; 0.1 mM EDTA; 33.3 mM DTT; 270 μM Coenzyme A (lithium salt); 470 μM Luciferin (Duchefa); 530 μM ATP, final pH 7.8) was added to 100 μl of cell lysate and measured for 5 seconds by TopCount.NXT Chemiluminescence Counter (Packard).

B1: leptin: mouse leptin (R&D Systems), ob gene product, used on PC12 cells at 100 ng/ml (protein)
chain: VPIQKVQDDTKTLIKTIVTRINDISHTQSVSAKQRVTGLDFIPGLHPILSLSKMDQTLAVYQQVLTSLPSQNVLQIANDLENLRDLLHLLAFSKSCSLPQTSGLQKPESLDGVLEASLYSTEVVALSRLQGSLQDILQQLDVSPEC
As for B1, for the setting “PC12 cells co-transfected with pGL3-rNPYluc and pMET7-mLRlo, leptin alone”, the “luciferase activity, rNPY reporter” value is “moderate stimulation”. Besides, the optimal co-stimulatory concentration (leptin plus forskolin, rNPY luciferase) came to 100 ng/mL.
